Our source for the FretR values is article PMC2965686.

Test in all cases: FRET or BRET
(BRET reads energy transfer from a luciferase to a nearby fluorophore.)

The target of assay [1] is YFP-Cnm67 (S. cerevisiae) (UniProt P53865).
The target of assay [2] is Spo21-YFP (S. cerevisiae) (UniProt Q12411).
The target of assay [3] is Mpc54-YFP (S. cerevisiae) (UniProt Q08550).
Assay [4] concerns the target YFP-Spo21 (S. cerevisiae) (UniProt Q12411).

Sequence of UniProt P53865 (P53865 whole entry): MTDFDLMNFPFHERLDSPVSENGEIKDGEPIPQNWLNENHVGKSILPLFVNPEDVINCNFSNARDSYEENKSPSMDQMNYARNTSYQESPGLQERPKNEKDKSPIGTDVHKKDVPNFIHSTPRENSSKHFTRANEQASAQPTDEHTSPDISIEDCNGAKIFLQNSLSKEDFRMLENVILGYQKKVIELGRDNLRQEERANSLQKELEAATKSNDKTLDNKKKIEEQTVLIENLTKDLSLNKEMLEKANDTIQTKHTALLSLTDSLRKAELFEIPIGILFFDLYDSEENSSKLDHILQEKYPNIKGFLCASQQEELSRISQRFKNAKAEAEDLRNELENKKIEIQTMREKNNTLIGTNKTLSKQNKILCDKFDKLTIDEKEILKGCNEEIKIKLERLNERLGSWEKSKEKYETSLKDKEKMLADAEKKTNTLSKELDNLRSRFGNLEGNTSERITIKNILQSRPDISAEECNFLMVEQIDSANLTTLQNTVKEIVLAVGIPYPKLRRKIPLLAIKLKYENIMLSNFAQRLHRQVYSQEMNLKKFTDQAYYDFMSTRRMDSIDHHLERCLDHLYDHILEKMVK
Sequence of UniProt Q08550 (Q08550 whole entry): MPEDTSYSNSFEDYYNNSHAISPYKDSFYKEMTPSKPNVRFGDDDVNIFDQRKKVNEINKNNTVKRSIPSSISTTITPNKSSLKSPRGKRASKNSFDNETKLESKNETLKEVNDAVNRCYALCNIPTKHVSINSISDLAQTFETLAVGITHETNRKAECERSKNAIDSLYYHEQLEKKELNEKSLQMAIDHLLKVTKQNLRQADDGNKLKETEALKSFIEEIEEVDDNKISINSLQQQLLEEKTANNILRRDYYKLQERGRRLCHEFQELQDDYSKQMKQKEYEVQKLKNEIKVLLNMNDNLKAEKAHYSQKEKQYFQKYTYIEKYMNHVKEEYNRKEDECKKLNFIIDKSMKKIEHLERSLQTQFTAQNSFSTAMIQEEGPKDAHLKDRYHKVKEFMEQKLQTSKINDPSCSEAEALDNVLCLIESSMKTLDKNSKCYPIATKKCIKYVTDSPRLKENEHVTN

As to “Spo21-CFP (from UniProt Q12411 1-609) (natural protein)”, the FretR came to 1.47 in assay [1], 1.34 in assay [2] and 1.24 in assay [3].
As for “CFP-Mpc54 (from UniProt Q08550 1-464) (natural protein)”, the FretR in assay [4] worked out at 1.23.
Turning to “Mpc54-CFP (from UniProt Q08550 1-464) (natural protein)”, the FretR in assay [1] worked out at 1.35; in assay [3] it was 1.26.
